Experimental data published in article PMC8249653.

Substrate: C[C@H](O)C(=O)O
Experiment: cells, lysate or membranes
Details: pH 7.3, 37 °C, 2 min uptake, 1-100 µM L-lactate, labelled compound (14C tracer spike)

B1: Slc16a13 (SLC16A13/MCT13) (Mus musculus) (protein)
chain: MVRRAEPPDGGWGWMVVLSAFFQSALVFGVLRSFGVFFVEFVAAFEEQAARVSWIASIGIAVQQFGSPIGSALSTKLGPRPVVMTGGILAALGMLLASFATSLTHLYLSIGLLSGSGWALTFTPTMACLSRYFSQRRSLAMGLALTGVGISSFAFAPLFQWLINNYAWRGALLLVSALSLHLMACGALLRPLSLTEDAAVGGPGAQITSLLRHGPFLRYTAALTLINTGFFIPYVHLVAHLQDLGWDPLPAAFLLSVAAVSDLVGRVASGWLGDAVPGPVARLLMLWTTLTGVSLALFPVAQASSTLVVLAVAYGFTSGALTPVAFSVLPELVGTGRIYCGMGLVQMIESIGGLLGAPLSGYLRDVTGNYTASFVVAGAFLLAGSGVLLTLPHFFSCISVSTSRPQDLVIEASDTKIPLPKEEGLGEN
With B1 the Km was 0.47 ± 0.35 µM.
